Changes are numbered by the printed parent chain.
T1: FGFR4 (acro) (UniProt P22455)
T1 sequence (looked up): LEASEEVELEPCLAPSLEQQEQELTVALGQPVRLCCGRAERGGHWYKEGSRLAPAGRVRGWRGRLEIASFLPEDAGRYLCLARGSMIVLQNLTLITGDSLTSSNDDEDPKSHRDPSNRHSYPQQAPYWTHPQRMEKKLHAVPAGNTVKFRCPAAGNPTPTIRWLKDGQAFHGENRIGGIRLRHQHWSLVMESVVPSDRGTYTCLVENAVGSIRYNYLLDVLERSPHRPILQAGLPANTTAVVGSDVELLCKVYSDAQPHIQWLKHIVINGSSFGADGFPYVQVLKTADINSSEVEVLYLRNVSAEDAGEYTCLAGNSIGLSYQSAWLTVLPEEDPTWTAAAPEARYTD

B1: 3G10 scFv-Fc (Fc fusion)
chain: EVQLQQSGPELVKPGASVKMSCKASGYTFATYNMHWVKQTTGQGLEWIGAIYPDNGDTFYNRKFKDKATLTADKSSTTAYMQLSSLTSEDSAVYYCARGDFAYWGQGTLVTVSAGGGGSGGGGSGGGGSDVLMTQSPASLSASVGETVTITCGASENIYGALNWYQRKQGKSPQLLIYGATNLADGMSSRFSGSGSGRQYSLKISSLHPDDVATYYCQNVLSTPYTFGGGTKLEMKESKYGPPCPPCPAPEAAGGPSVFLFPPKPKDTLMISRTPEVTCVVVDVSQEDPEVQFNWYVDGVEVHNAKTKPREEQFNSTYRVVSVLTVLHQDWLNGKEYKCKVSNKGLPSSIEKTISKAKGQPREPQVYTLPPSQEEMTKNQVSLTCLVKGFYPSDIAVEWESNGQPENNYKTTPPVLDSDGSFFLYSKLTVDKSRWQEGNVFSCSVMHEALHNHYTQKSLSLSLG
B2: 2B2 scFv-Fc (Fc fusion)
chain: QLQLQQSGAELVKPGASVKMSCKASGYTFASYNLHWVKQTPGQGLEWIGLIYPENGDTSYNQKFKDKATLTADKSSTTAYIQLSSLASEDSAVYFCARGGFDYWGQGTTLTVSSGGGGSGGGGSGGGGSDIVMTQSQKFMSTSVGDRVSVTCKASQNVGTNVAWYQQKPGQSPKALIYSASYRYSGVPDRFTGSGSGTDYTLTISSVQAEDLALYYCQQHYSTPYTFGGGTKLELKESKYGPPCPPCPAPEAAGGPSVFLFPPKPKDTLMISRTPEVTCVVVDVSQEDPEVQFNWYVDGVEVHNAKTKPREEQFNSTYRVVSVLTVLHQDWLNGKEYKCKVSNKGLPSSIEKTISKAKGQPREPQVYTLPPSQEEMTKNQVSLTCLVKGFYPSDIAVEWESNGQPENNYKTTPPVLDSDGSFFLYSKLTVDKSRWQEGNVFSCSVMHEALHNHYTQKSLSLSLG
B3: 3A3 scFv-Fc (Fc fusion)
chain: QVQLQQSGAELVKPGASVKMSCKASGYTFTTYNIHWVRQTPGQGLEWIGLIYPDNGDTSYNQKFKAKATLTADKSSSTAYMHLSSLTSEDSAVYYCARGGFDYWGQGTTLTVSSGGGGSGGGGSGGGGSDIVMTQSHKFMSTSVGDRVSITCKASQDVNTDVSWYQQKPGQSPKLLIYSASYRYTGVPTRFTGSGSGTDFTFTISGVQAEDLADYYCQQHYNTPYTFGGGTRLEIKESKYGPPCPPCPAPEAAGGPSVFLFPPKPKDTLMISRTPEVTCVVVDVSQEDPEVQFNWYVDGVEVHNAKTKPREEQFNSTYRVVSVLTVLHQDWLNGKEYKCKVSNKGLPSSIEKTISKAKGQPREPQVYTLPPSQEEMTKNQVSLTCLVKGFYPSDIAVEWESNGQPENNYKTTPPVLDSDGSFFLYSKLTVDKSRWQEGNVFSCSVMHEALHNHYTQKSLSLSLG
B4: 1C10 scFv-Fc (Fc fusion)
chain: QVQLQQSGAELVKPGASVKMSCKASGYTFRYYNMHWVKRTPGQGLEWIGLIYPDNGDTSYNQKFKGKATLTADTSSSTAYMQLSSLTSEDSAVYYCARGGLDYWGQGTSLTVSSGGGGSGGGGSGGGGSDIVMTQSPASLSASVGETVTITCRASGNIHNYLAWYQQKQGKSPQLLVYNAKTLADGVPSRFSGSGSGTQYSLKINSLQPEDFGSYYCQHFWSTPYTFGGGTKLEMKESKYGPPCPPCPAPEAAGGPSVFLFPPKPKDTLMISRTPEVTCVVVDVSQEDPEVQFNWYVDGVEVHNAKTKPREEQFNSTYRVVSVLTVLHQDWLNGKEYKCKVSNKGLPSSIEKTISKAKGQPREPQVYTLPPSQEEMTKNQVSLTCLVKGFYPSDIAVEWESNGQPENNYKTTPPVLDSDGSFFLYSKLTVDKSRWQEGNVFSCSVMHEALHNHYTQKSLSLSLG
B5: 3D7 scFv-Fc (Fc fusion)
chain: QVQLQQSGAELVKPGASVKMSCKASGYTFSFYNMHWVKRTPGRGLEWIGLIYPDNGDTSYNQKFKGKATLTADTSSSTAYMQLSSLTSEDSAVYYCARGGLDYWGQGTSLTVSSGGGGSGGGGSGGGGSEIVLTQSPASLAVSLGQRATISCKASQSVDYDGDSYMNWYQQKPGQPPKLLIYGISNRFSGVPDRFSGSGSGTDFTLKISTIKPEDLGMYYCLQGTHQPYTFGGGTKLEIKESKYGPPCPPCPAPEAAGGPSVFLFPPKPKDTLMISRTPEVTCVVVDVSQEDPEVQFNWYVDGVEVHNAKTKPREEQFNSTYRVVSVLTVLHQDWLNGKEYKCKVSNKGLPSSIEKTISKAKGQPREPQVYTLPPSQEEMTKNQVSLTCLVKGFYPSDIAVEWESNGQPENNYKTTPPVLDSDGSFFLYSKLTVDKSRWQEGNVFSCSVMHEALHNHYTQKSLSLSLG
B6: 1A3 scFv-Fc (Fc fusion)
chain: QVQLQQPGAELVKPGASVKMSCKASGYTFASYNLHWVKQTPGQGLEWIGLIYPENGDTSYNQKFKGKATLTADKSSSTAYIQLSSLTSEDSAVYFCARGGFDYWGQGTTLTVSQGGGGSGGGGSGGGGSDIQMTQSPASLSASVGETVTITCGASENIYGALNWYQRKQGKSPQLLIYGATNLADGMSSRFSGSGSGRQYSLKISSLHPDDVATYYCQNVLSTPYTFGGGTKLEIKESKYGPPCPPCPAPEAAGGPSVFLFPPKPKDTLMISRTPEVTCVVVDVSQEDPEVQFNWYVDGVEVHNAKTKPREEQFNSTYRVVSVLTVLHQDWLNGKEYKCKVSNKGLPSSIEKTISKAKGQPREPQVYTLPPSQEEMTKNQVSLTCLVKGFYPSDIAVEWESNGQPENNYKTTPPVLDSDGSFFLYSKLTVDKSRWQEGNVFSCSVMHEALHNHYTQKSLSLSLG
B7: 3E3 scFv-Fc (Fc fusion)
chain: QVQLQQPGAVLVKPGASVRMSCKASGYTFPYYNVHWVKRTPGQGLEWIGLIYPDNGDTSYNQKFTGKATLTADTSSSTAYMQLSSLTSEDSAVYYCARGGLDYWGQGTTLTVSAGGGGSGGGGSGGGGSDVQITQSPASLSASVGETVTITCGASENIYGALNWYQRKQGKSPQLLIYGATNLADGMSSRFSGSGSGRQYSLKISSLHPDDVATYYCQNVLSTPYTFGGGTKLEIKESKYGPPCPPCPAPEAAGGPSVFLFPPKPKDTLMISRTPEVTCVVVDVSQEDPEVQFNWYVDGVEVHNAKTKPREEQFNSTYRVVSVLTVLHQDWLNGKEYKCKVSNKGLPSSIEKTISKAKGQPREPQVYTLPPSQEEMTKNQVSLTCLVKGFYPSDIAVEWESNGQPENNYKTTPPVLDSDGSFFLYSKLTVDKSRWQEGNVFSCSVMHEALHNHYTQKSLSLSLG
B8: 1G6 scFv-Fc (Fc fusion)
chain: EIQLQQSGAELVKPGASVKMSCKASGYTFRYYNMHWVKRTPGQGLEWIGLIYPDNGDTSYNQKFKGKATLTADTSSSTAYMQLSSLTSEDSAVYYCARGGLDYWGQGTSLTVSSGGGGSGGGGSGGGGSNIVMTQSHKFMSTSVGDRVSITCKASQDVNTDVAWYQQKPGQSPKLLIYSASYRYTGVPTRFTGSGSGTDFTFTISGVQAEDLADYYCQQHYNTPYTFGGGTKLELKESKYGPPCPPCPAPEAAGGPSVFLFPPKPKDTLMISRTPEVTCVVVDVSQEDPEVQFNWYVDGVEVHNAKTKPREEQFNSTYRVVSVLTVLHQDWLNGKEYKCKVSNKGLPSSIEKTISKAKGQPREPQVYTLPPSQEEMTKNQVSLTCLVKGFYPSDIAVEWESNGQPENNYKTTPPVLDSDGSFFLYSKLTVDKSRWQEGNVFSCSVMHEALHNHYTQKSLSLSLG
B9: 3H9 scFv displayed on phage (scFv)
scFv: EIQLQQSGAELVKPGASVKMSCKASGYTFSFYNMHWVKRTPGQGLEWIGLIYPDNGDTSYNQKFKGKATLTADTSSSTAYMQLSSLTSEDSAVYYCARGGLDYWGQGTTLTVSSGGGGSGGGGSGGGGSDIVLTQSPASLSVSVGETVTITCRASENIYSNLAWYQQKQGKSPQLLVYAATNLADGVPSRFSGSGSGTQYSLKINSLQSEDFGSYYCQHFWGTPYTFGGGTKLELK
B10: 3D6 scFv displayed on phage (scFv)
scFv: QVQLQQSGAELVKPGASVKMSCKASGYTFRYYNMHWVKRTPGQGLEWIGLIYPDNGDTSYNQKFKGKATLTADTSSSTAYMQLSSLTSEDSAVYYCARGGLDYWGQGTSLTVSSGGGGSGGGGSGGGGSDIQMTQSPASLSVSVGETVTITCRASENIYSNLAWYQQKQGKSPQLLVYNAKTLADGVPSRFSGSGSGTQYSLKINSLQPEDFGSYYCQHFWSTPFTFGSGTKLELK
B11: 1C10 scFv displayed on phage (scFv)
scFv: B10 scFv with Q132V, V142A, E156G, Y159H, S160N, N161Y, F225Y, S229G, L235M
B12: 3A12 scFv displayed on phage (scFv)
scFv: EVQLQQSGAELVKPGASVKMSCKASGYTFSFYNVHWVRQTPGQGLEWIGLIYPDNGDTSYNQKFKAKATLTADKSSSAAYMQLSSLTSEDSAVYYCARGGFDYWGQGTSLTVSSGGGGSGGGGSGGGGSDIVMTQSHKFMSTSVGDRVNITCKASQDVSTAVAWYQQKPGQSPKLLIYSASYRYSGVPDRFTGSGSGTDFTFTISSVQAEDLAVYYCQQHYSTPYTFGGGTKLEMK

target: recombinant mouse FGFR2b (mouse) (UniProt P21803); assay: ELISA, antibody 1ug/mL
Sequence (P21803 22-377): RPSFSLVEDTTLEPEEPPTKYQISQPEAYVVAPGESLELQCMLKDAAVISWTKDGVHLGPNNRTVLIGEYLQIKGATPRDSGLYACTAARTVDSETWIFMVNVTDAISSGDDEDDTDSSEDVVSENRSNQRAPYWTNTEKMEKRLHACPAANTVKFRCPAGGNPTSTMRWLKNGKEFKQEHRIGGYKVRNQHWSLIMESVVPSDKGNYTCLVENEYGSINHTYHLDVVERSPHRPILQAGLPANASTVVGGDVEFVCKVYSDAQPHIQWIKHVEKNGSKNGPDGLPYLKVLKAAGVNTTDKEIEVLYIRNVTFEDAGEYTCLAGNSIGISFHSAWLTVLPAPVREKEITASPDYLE

| Binder | OD (450 nm) value |
| --- | --- |
| B1 | 3 |
| B2 | 3.09 |
| B3 | 2.63 |
| B4 | 2.94 |
| B5 | 2.48 |
| B6 | 1.81 |
| B7 | 3.06 |
| B8 | 2.76 |

target: extracellular domain of the FGFR2b protein (NP_075259.4) (UniProt P21802); assay: phage ELISA
Sequence (P21802 other isoform, or with tags, fused parts or gaps): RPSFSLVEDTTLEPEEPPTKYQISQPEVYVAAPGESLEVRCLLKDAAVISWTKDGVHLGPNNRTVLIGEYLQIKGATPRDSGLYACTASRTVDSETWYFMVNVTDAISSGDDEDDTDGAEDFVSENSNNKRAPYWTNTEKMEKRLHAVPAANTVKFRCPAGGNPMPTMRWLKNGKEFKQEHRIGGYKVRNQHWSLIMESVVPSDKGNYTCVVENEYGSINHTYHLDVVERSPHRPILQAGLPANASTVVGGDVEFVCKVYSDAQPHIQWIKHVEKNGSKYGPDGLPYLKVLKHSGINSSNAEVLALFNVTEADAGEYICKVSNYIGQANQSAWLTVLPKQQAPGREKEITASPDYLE

| Binder | OD (450 nm) value |
| --- | --- |
| B9 | 2.22 |
| B10 | 1.92 |
| B11 | 2.55 |
| B12 | 2.41 |

target: extracellular domain of FGFR2c protein (Example 1) (UniProt P21802); assay: phage ELISA
Sequence (P21802 22-377): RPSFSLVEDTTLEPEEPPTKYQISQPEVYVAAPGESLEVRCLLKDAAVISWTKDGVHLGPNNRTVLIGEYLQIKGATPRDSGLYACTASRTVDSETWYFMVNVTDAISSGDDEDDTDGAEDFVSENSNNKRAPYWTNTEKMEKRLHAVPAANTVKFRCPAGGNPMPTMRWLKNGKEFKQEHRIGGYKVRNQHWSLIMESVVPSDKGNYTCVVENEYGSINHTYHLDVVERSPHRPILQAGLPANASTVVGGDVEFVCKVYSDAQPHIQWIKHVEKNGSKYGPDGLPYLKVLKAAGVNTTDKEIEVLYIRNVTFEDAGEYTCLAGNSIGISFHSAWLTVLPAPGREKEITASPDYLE

| Binder | OD (450 nm) value |
| --- | --- |
| B9 | 0.073 |
| B10 | 0.037 |
| B11 | 0.068 |
| B12 | 0.1 |

target: T1, FGFR4 (acro); assay: ELISA, antibody 10 µg/mL

| Binder | OD (450 nm) value |
| --- | --- |
| B1 | 0.175 |
| B5 | 0.256 |
| B7 | 0.265 |
| B8 | 0.232 |

target: FGFR1 (acro) (UniProt P11362); assay: ELISA, antibody 10 µg/mL
Sequence (P11362 22-376): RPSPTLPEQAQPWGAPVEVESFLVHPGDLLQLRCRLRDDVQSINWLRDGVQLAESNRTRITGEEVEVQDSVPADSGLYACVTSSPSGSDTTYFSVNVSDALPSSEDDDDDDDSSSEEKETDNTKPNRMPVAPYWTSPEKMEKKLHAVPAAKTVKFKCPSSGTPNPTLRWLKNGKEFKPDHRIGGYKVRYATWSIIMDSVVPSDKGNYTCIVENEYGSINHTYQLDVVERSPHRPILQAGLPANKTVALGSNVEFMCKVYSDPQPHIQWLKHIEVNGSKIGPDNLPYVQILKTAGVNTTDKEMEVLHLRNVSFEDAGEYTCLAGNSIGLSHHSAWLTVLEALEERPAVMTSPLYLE

| Binder | OD (450 nm) value |
| --- | --- |
| B1 | 0.083 |
| B2 | 0.109 |
| B3 | 0.097 |
| B4 | 0.626 |
| B5 | 0.192 |
| B6 | 0.143 |
| B7 | 0.19 |
| B8 | 0.217 |

target: FGFR2c (acro) (UniProt P21802); assay: ELISA, antibody 10 µg/mL
Sequence (P21802 22-377): as the sequence (P21802 22-377) above

| Binder | OD (450 nm) value |
| --- | --- |
| B6 | 0.134 |
| B7 | 0.199 |
| B8 | 0.176 |

target: recombinant mouse FGFR2b (mouse) (UniProt P21803); assay: BLI, antibody on AHC2 sensor

| Binder | Kd [nM] | koff [s⁻¹] | kon [M⁻¹ s⁻¹] |
| --- | --- | --- | --- |
| B1 | 41.9 | 0.00195 | 46600 |
| B2 | 53.5 | 0.00235 | 43900 |
| B3 | 39.6 | 0.00122 | 30800 |
| B4 | 75.6 | 0.00216 | 28600 |
| B5 | 81.7 | 0.00238 | 29100 |
| B6 | 99.8 | 0.0054 | 54200 |
| B7 | 52.7 | 0.00214 | 40500 |
| B8 | 42.2 | 0.00128 | 30400 |
